Numbering of substitutions follows the chain as printed. Values belong to the binder of their own block, whether it stands above or below them.
Tests used:
[1] = molecular target: T1, Peptide B (human PAR-2), unbiotinylated (Human); assay: SPR, antibody captured
T1 construct: also called Peptide B No Biotin
T1 peptide: SLIGKVDGTSHVTG

[2] = molecular target: T1, Peptide B (human PAR-2), unbiotinylated; assay: SPR, antibody captured
Experimental: Equilibrium dissociation constants (KD values) for antigen binding to selected purified PAR-2 antibodies were determined by surface kinetics using a real-time surface plasmon resonance biosensor assay. Antibody was captured on either a rabbit anti-mouse IgG polyclonal antibody (GE Healthcare, Piscataway, N.J.) surface or a goat anti-human IgG polyclonal antibody (Jackson Immuno Research Lab, West Grove, Pa.) surface created through direct amine chemical coupling to a BIACORE™ CM5 sensor chip to form a captured antibody surface. […] Antigen-antibody binding and dissociation were monitored in real time at room temperature. Kinetic analysis was performed to calculate KD and half-life of antigen/antibody complex dissociation (Table 10). For those antibodies where no T_{1/2} value is shown, steady state analysis was used to calculate the KD value. NB: no binding observed under current experimental conditions. ND: not determined.

[3] = molecular target: T2, full length human PAR-2 (human, UniProt P55085 26-397); assay: cell-based or functional assay
T2 sequence (P55085 26-397 G138A limits assumed): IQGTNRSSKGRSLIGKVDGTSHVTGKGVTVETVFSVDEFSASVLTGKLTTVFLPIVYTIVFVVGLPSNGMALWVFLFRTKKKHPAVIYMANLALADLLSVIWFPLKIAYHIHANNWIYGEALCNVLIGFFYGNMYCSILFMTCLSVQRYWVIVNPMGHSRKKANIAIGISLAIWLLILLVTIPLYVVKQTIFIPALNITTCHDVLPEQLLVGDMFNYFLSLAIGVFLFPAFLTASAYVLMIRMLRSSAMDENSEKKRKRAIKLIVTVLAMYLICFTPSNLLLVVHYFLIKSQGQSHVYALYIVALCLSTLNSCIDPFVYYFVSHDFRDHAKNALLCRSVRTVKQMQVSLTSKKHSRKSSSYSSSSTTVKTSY

[4] = molecular target: T3, Peptide F (monkey PAR-2), N-terminal biotinylated (Monkey (Macaca mulatta), N-terminal biotin via G4S linker); assay: SPR, antibody captured
T3 construct: also called Peptide F N-Term
T3 sequence (peptide, as listed by the source): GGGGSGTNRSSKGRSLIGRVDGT

[5] = molecular target: T4, Peptide D (N-terminal domain of human PAR-2-mouse IgG2a) (Human); assay: peptide ELISA
T4 chain: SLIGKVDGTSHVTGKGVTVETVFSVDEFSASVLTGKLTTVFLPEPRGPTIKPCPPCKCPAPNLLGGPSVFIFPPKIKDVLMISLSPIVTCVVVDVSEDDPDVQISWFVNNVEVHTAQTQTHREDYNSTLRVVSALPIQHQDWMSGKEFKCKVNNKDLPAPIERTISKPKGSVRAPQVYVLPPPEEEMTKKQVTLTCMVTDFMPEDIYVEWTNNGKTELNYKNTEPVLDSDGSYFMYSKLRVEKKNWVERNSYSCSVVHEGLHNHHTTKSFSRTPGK

[6] = molecular target: T5, Peptide E (mouse PAR-2), unbiotinylated (Mouse (Mus musculus)); assay: peptide ELISA titration; ELISA titration, antibody 13.3 nM to 0.22 pM, sigmoidal fit
T5 construct: also called Peptide E No Biotin
T5 peptide: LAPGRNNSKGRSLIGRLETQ
Experimental: Anti-PAR-2 antibodies were tested for their ability to bind to the PAR-2 peptides. Various PAR-2 Peptides (Table 3) were coated onto 96-well plates at a concentration of 2 μg/ml and incubated overnight followed by blocking in a suitable blocking agent for one hour. […] Purified anti-PAR-2 antibodies were added to the plate coated with PAR-2 peptides to a final concentration ranging from 0.2 to 2.0 μg/ml and incubated for one hour at room temperature. Detection of bound antibodies was determined with Horse-Radish Peroxidase (HRP) conjugated anti-mouse or human IgG (Jackson Immuno Research Lab, West Grove, Pa.) and developed by standard colorimetric response using tetramethylbenzidine (TMB) substrate. Absorbance was read at OD₄₅₀ for 0.1 second.
In another experiment, selected anti-PAR-2 antibodies cloned onto human IgG4 were tested for binding to unbiotinylated and biotinylated forms of PAR-2 peptides (Peptides A, E, F and G; as described above). […] Absorbance values at 450 nm were analyzed using a sigmoidal dose-response model in GraphPad Prism (GraphPad Software, Inc., La Jolla, Calif.) and EC₅₀ values were reported (Table 9). EC₅₀ values are defined as the antibody concentration required to achieve 50% maximal binding to PAR-2 peptide.

[7] = molecular target: monkey PAR-2 (monkey); assay: cell-based or functional assay
[8] = molecular target: T2, full length human PAR-2; assay: cell-based or functional assay; remark: listed apart in the source
[9] = molecular target: rat PAR-2 (rat, UniProt Q63645 37-397); assay: cell-based or functional assay
Chain of rat PAR-2 (Q63645 37-397): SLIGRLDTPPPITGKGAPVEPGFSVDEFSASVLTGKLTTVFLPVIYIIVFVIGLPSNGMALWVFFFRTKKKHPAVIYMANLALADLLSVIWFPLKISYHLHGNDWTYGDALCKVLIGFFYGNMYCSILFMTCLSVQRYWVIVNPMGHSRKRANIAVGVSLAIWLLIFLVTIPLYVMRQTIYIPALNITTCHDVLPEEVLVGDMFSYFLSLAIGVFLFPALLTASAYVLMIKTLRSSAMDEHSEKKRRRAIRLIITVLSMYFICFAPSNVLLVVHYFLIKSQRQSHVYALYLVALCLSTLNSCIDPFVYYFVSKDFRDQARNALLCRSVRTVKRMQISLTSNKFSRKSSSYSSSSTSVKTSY

B1: H4H583P (antibody, human IgG4, V domains shown)
VH: QVQLVESGGGVVQPGMSLRLSCTASGFTFRRYGMHWVRQAPGKGLEWVAVIWYDGSNKYYADSVKGRFTITRDNSKNTLYLQMNSLRAEDTAIYFCASEITIGDWFDPRGQGTLVTVSS
VL: AIQMTQSPSSLSASVGDRVTITCRASQGIRNDLGWFQQKPGKVPKLLIYAASTLHSGVPSRFSGSGFGTDFTLTISSLQPEDFATYYCLQDFNYPLTFGGGTKVEIK
notes: also called H1H583P variable regions
binding result [1]: no binding (tested: 15.6 to 250 nM peptide)

B3: H4H579P (antibody, human IgG4, V domains shown)
VH: QVQLVESGGGVVQPGRSLRLSCVASGFTFSRYGMHWVRQAPGKGLEWLIVISYDGINKYYADSVKGRFTISRDNSKNTVYLQMNSLRAEDTGVYYCAKGDFWSGYFDYWGQGTLVTVSS
VL: DIVMTQTPLSSPVTLGQPASISCRSSQSLVHSDGNTYLSWLHQRPGQPPRLLIYKISNRFSGVPDRFSGSGAGTDFTLQISRVEAEDVGIYYCMQGTQFPTFGGGTKVEIK
notes: also called H1H579P variable regions
EC50 [6]: 0.713 nM

B5: H4H581P (antibody, human IgG4, V domains shown)
VH: B3 VH with M34I, L48V, G92A
VL: B3 VL with G96A
notes: also called mAb H4H581P; H1H581P variable regions
IC50, calcium mobilization FLIPR, 100 nM Trypsin [3]: 55 nM | binding result [5]: binds | H4H581P IC50, NF-kB-luciferase, Bovine Factor Xa [7]: 0.9 nM | H4H581P IC50, NF-kB-luciferase, Human Kallikrein 5 [7]: 11 nM | H4H581P IC50, NF-kB-luciferase, Human Kallikrein 14 [7]: 11.6 nM | H4H581P IC50, NF-kB-luciferase, Human Pancreatic Trypsin [7]: 5.4 nM | H4H581P IC50, NF-kB-luciferase, Bovine Factor Xa [8]: 2.5 nM | H4H581P IC50, NF-kB-luciferase, Human Factor Xa [8]: 1.1 nM | H4H581P IC50, NF-kB-luciferase, Human Kallikrein 5 [8]: 0.9 nM | H4H581P IC50, NF-kB-luciferase, Human Kallikrein 14 [8]: 1.2 nM | H4H581P IC50, NF-kB-luciferase, Human Pancreatic Trypsin [8]: 1.9 nM | H4H581P IC50, NF-kB-luciferase, Tryptase [8]: 3.5 nM | H4H581P IC50, NF-kB-luciferase, Human Pancreatic Trypsin [9]: 700 nM

Results, then the binder that gave them:

Kd [2]: 84 nM | T1/2 [2]: 9 min | IC50, calcium mobilization FLIPR, 100 nM Trypsin [3]: 29.5 nM | Kd [4]: 7.1 nM | T1/2 [4]: 24 min | binding result [5]: binds
B2: H4H588N (antibody, human IgG4, V domains shown)
VH: EVQLLESGGGLVQPGGSLRLSCAASGFTFSSYAMTWVRQAPGKGLYWVSAISGGRGSAYYADSVKGRFTISRDNSKNTLYLQMNSLRAEDTAVYYCAKEGDSGYDLAYWGRGTLVTVSS
VL: DIQMTQSPSSLSASVGDRVTITCRARQGISNNLAWLQQKPGKAPKSLIYAASSLQSGIPSKFSGSGSGTYFTLTISSLQPEDFATYYCQQYKSSPLTFGGGTKVEIK
notes: also called H2M588N variable regions

EC50 [6]: 0.308 nM
B4: H4H585P (antibody, human IgG4, V domains shown)
VH: B3 VH with G92A
VL: B3 VL
notes: also called H1H585P variable regions

Source: patent US20110059095A1 (Regeneron, published 2011)
